± gives the standard deviation.
Assay: protein stability index of a GFP-peptide fusion (GPS, HEK-293T) (PSI 1-6); higher = more stable
[1] = treatment: DMSO, c terminus: a fixed tail appended
[2] = treatment: MLN4924 1 uM, 8 h, c terminus: a fixed tail appended
[3] = treatment: DMSO, c terminus: native
[4] = treatment: MLN4924 1 uM, 8 h, c terminus: native
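Further: 24-mer peptide tiles fused after GFP, lentivirally expressed, FACS-sorted into six equal bins by GFP/DsRed ratio, decoded by Illumina sequencing, PSI is the read-weighted mean bin number.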

| Sequence | protein stability index [1] | protein stability index [2] | protein stability index [3] | protein stability index [4] |
| --- | --- | --- | --- | --- |
| QALSGTPKKGPAPSLSPGSSCVKY [TSPAN10] | 4.16 ± 0.059 | 4.37 ± 0.22 |  |  |
| QAPKSKSGSRPRKPPPRKHTRSWA [LRRC59] | 4.05 ± 0.21 | 4.15 ± 0.29 |  |  |
| QAQIELRLLELMNQHDTEMKYYIV [DYRK1B] | 2.24 ± 0.23 | 2.49 ± 0.47 |  |  |
| QAVVLCSKKTFQITKQGDGVDFLS [USP39] | 2.57 ± 0.18 | 2.77 ± 0.38 |  |  |
| QCFFNGVFLGNKRSLSERTVDKCF [SPATS1] | 2.13 ± 0.25 | 2.34 ± 0.24 |  |  |
| QCIECGKSFNRHCNLIRHQKIHTV [ZSCAN9] | 3.37 ± 0.3 | 3.36 ± 0.38 |  |  |
| QDFNTMFTNCYIYNKPTDDIVLMA [BRD3] | 2.12 ± 0.28 | 2.23 ± 0.25 |  |  |
| QDPQLHSPFSGSLHAPPAFYSTSS [VENTX] | 3.65 ± 0.2 | 3.75 ± 0.28 |  |  |
| QDVTVVGSAGRLLAVGTDLYGQRN [GFOD1] | 3.4 ± 0.26 | 3.63 ± 0.32 |  |  |
| QELQIDDNEYAYLKAIIFFDPDAK [HNF4A] | 2.53 ± 0.22 | 2.72 ± 0.21 |  |  |
| QFGIKDVFDNAIRAALISRRHLQF [RHOBTB1] | 2.62 ± 0.38 | 2.59 ± 0.46 |  |  |
| QFGLLSFFFAVLHAIYSLSYPMRR [STEAP1] | 3.28 ± 1 | 2.058 ± 0.016 |  |  |
| QFGQDGPISVHCSAGVGRTGVFIT [PTPRD] | 2.46 ± 0.48 | 2.15 ± 0.22 |  |  |
| QFISRFLEGQSGVTIKHVACGDFF [NEK8] | 2.51 ± 0.47 | 2.39 ± 0.37 |  |  |
| QFLNDRLASYLEKVRQLERDNAEL [KRT33B] | 3.18 ± 0.18 | 3.33 ± 0.28 |  |  |
| QGGKDFNVPLSISRLTPGGKAAQA [PDLIM7] | 4.23 ± 0.26 | 4.35 ± 0.15 |  |  |
| QGTTVPAHRAILVARCEVMAAMFN [RHOBTB3] | 2.1 ± 0.18 | 2.17 ± 0.097 |  |  |
| QKAGVTRSGRLILWEAPPLGAGGG [NEK8] | 3.31 ± 0.29 | 2.95 ± 0.32 |  |  |
| QLEKPKPVKPVTFSTGIKMGQHIS [MNAT1] | 3.36 ± 0.15 | 3.44 ± 0.41 |  |  |
| QLERPLPLTSVCYPQDLPRPLRSR [TRAF3IP2] | 4.05 ± 0.21 | 4.1 ± 0.24 |  |  |
| QLRNCLRILMGELSNHHDHHDEFC [BEX3] | 2.28 ± 0.41 | 2.21 ± 0.12 |  |  |
| QQQIHHIKNLYAFNLFCQKRFDES [VPS39] | 2.29 ± 0.11 | 2.42 ± 0.15 |  |  |
| QRNGLVFIYDMCGSNYANFELDLG [PTPN9] | 2.84 ± 0.23 | 2.37 ± 0.57 |  |  |

| Sequence | protein stability index [1] | protein stability index [2] | protein stability index [3] | protein stability index [4] |
| --- | --- | --- | --- | --- |
| QRRPRVLSCLHSVCEQCLQILYES [RNF208] | 2.32 ± 0.17 | 2.64 ± 0.54 |  |  |
| QRRTEASRNAADKERAAGGGAGSS [GOLPH3] | 5.54 ± 0.23 | 5.36 ± 0.15 |  |  |
| QRVPKVLVENAKNFPQCVLEISDQ [EFHC1] | 3.49 ± 0.19 | 3.81 ± 0.29 |  |  |
| QRYEHGRTLKSYLGLTNQSRRYNR [ZNF649] | 3.39 ± 0.21 | 3.59 ± 0.29 |  |  |
| QSSGKILLCPLCQEEEQAETPMAP [TRIM15] | 3.79 ± 0.36 | 4.28 ± 0.31 |  |  |
| QSYPSQDKPLPPPPPGSLSRTQEP [SOAT2] | 5.2 ± 0.41 | 5.08 ± 0.24 |  |  |
| QTIQKTTTRRIVDGKVVSETNDTK [KRT18] | 5.34 ± 0.19 | 5.31 ± 0.23 |  |  |
| QTSAFARQPRDELERVRVSCTIIF [TMEM175] | 2.46 ± 0.55 | 2.62 ± 0.61 |  |  |
| QVLFDKVCEHLNLLEKDYFGLTYR [EPB41L3] | 2.4 ± 0.13 | 2.55 ± 0.28 |  |  |
| QWIEVDARRLTRFTGVITQGRNSL [CPXM2] | 2.91 ± 0.6 | 2.52 ± 0.17 |  |  |
| QYQQVPVEIVKSDFHKPFLGGFRH [IQUB] | 2.7 ± 0.36 | 2.99 ± 0.49 |  |  |
| RAGTEPSDAIRVVNAVLTQIDQIK [TRIP13] | 3.37 ± 0.15 | 3.04 ± 0.27 |  |  |
| RAMKIPFTNDKIINLPVEEFNELL [NFE2L1] | 2.87 ± 0.2 | 3.01 ± 0.67 |  |  |
| RANPCLSSSNEHAAPAAKTRKQAA [ELOA2] | 5.08 ± 0.16 | 5.18 ± 0.26 |  |  |
| RAPSRRHGVRAKVQPQARKKEMEM [CPN1] | 4.39 ± 0.26 | 4.64 ± 0.082 |  |  |
| RAYQYTTLTSVQLLDCFGIPVLMA [SLC35F2] | 3.13 ± 0.64 | 2.66 ± 0.85 |  |  |
| RCGVGVSVLDDLLYAVGGHDGSSY [KLHL20] | 2.36 ± 0.38 | 2.13 ± 0.42 |  |  |
| RCVKSIIRQVLQGLDYLHSKCKII [SRPK2] | 2.73 ± 0.88 | 2.79 ± 0.59 |  |  |
| REMSKTFIIGELHPDDRPKLNKPP [CYB5A] | 3.95 ± 0.23 | 4.05 ± 0.28 |  |  |
| RENEELSARYLSQCQEAEQARAEL [FBF1] | 5.38 ± 0.16 | 5.34 ± 0.09 |  |  |
| RENILVSLGAVGEGFHNYHHSFPY [SCD] | 2.22 ± 0.13 | 2.11 ± 0.14 |  |  |
| REPDWGDGDAPGSLLPAQVAACAQ [CEBPD] | 5.04 ± 0.28 | 4.99 ± 0.47 |  |  |
| RFAWPKVLKISYKRNNFYIKIRPG [EPB41L3] | 2.89 ± 0.63 | 2.2 ± 0.82 |  |  |

| Sequence | protein stability index [1] | protein stability index [2] | protein stability index [3] | protein stability index [4] |
| --- | --- | --- | --- | --- |
| RFYFENLLAKNSKPIHTTILNPHV [CAMK2B] | 2.2 ± 0.11 | 2.23 ± 0.23 |  |  |
| RGCLHSHGLQEGKDLFTQRQNSAP [CDC25A] | 3.72 ± 0.36 | 3.62 ± 0.33 |  |  |
| RGEQTTSQVSWEQDLKLFLQEPGV [FCHSD1] | 4.01 ± 0.27 | 4.06 ± 0.43 |  |  |
| RGFSGGILAFLVLEAVAGALVVAL [TSPAN10] | 2.78 ± 0.9 | 2.43 ± 0.41 |  |  |
| RGGDGEVASAPLQPPVPSLSEVKP [TRADD] | 5.34 ± 0.36 | 5.04 ± 0.58 |  |  |
| RGLIPVKRGPSSRSGGPPPKKSAP [RBMY1A1] | 4.3 ± 0.58 | 4.73 ± 0.28 |  |  |
| RIDGKLDSPSRSPSKVEVTEKTTT [C2CD2L] | 5.42 ± 0.21 | 5.46 ± 0.11 |  |  |
| RKPDPMCVFTYVQSLYNHLRRFE [SMTNL2] |  |  | 2.74 ± 0.62 | 2.72 ± 0.36 |
| RKPDYTAYVAMIPQCIKEEDTPSD [ATF4] | 4.47 ± 0.25 | 4.62 ± 0.21 |  |  |
| RKSSFAFYQAVRDLLPVWLLEDMR [ANKRD9] | 3.03 ± 0.99 | 2.21 ± 0.38 |  |  |
| RLAELEAQVRKLELERAQHELLLG [FBF1] | 2.97 ± 0.22 | 2.87 ± 0.14 |  |  |
| RLASFDSSGKLICSRTTGYQILTL [GMCL1] | 2.63 ± 0.93 | 2.55 ± 0.19 |  |  |
| RLEELTNRLASLQQENKVLKIELE [CCDC6] | 3.65 ± 0.23 | 3.78 ± 0.38 |  |  |
| RLICDFPFDGLLEERALLLGRMGK [VPS39] | 2.28 ± 0.25 | 2.28 ± 0.12 |  |  |
| RLINHSKCGNCQTKLHDIDGVPHL [KMT5A] | 2.67 ± 0.45 | 2.64 ± 0.36 |  |  |
| RLKKVENIKIWLSLRSYLKRRGPQ [PHTF1] | 2 ± 0.65 | 2.25 ± 0.64 |  |  |
| RLLSVPELCHHVAEVWVSGTIFIR [RETREG3] | 2.96 ± 0.4 | 2.69 ± 0.53 |  |  |
| RLMSFRPICSANHKESKMTIFEKE [CRYBA1] | 3.14 ± 0.16 | 3.5 ± 0.21 |  |  |
| RLRQLKVRNDSCVVHEDFREDILS [PKD2L1] | 3.47 ± 0.43 | 3.65 ± 0.43 |  |  |
| RLSNNQRYLFLDGDSHYEIEIVHI [ZFYVE21] | 3.21 ± 0.56 | 2.21 ± 0.53 |  |  |
| RLVQLLVRAHQDTQRRTSMGGTQQ [CTNNB1] | 2.23 ± 0.25 | 2.54 ± 0.54 |  |  |
| RMLQREGCFRSQGASLRLAVEDGL [M1AP] | 3.1 ± 0.22 | 2.94 ± 0.14 |  |  |
| RMQALLIRERILGPSHPDTSYYIR [FEM1C] | 2.2 ± 0.17 | 2.18 ± 0.44 |  |  |

| Sequence | protein stability index [1] | protein stability index [2] | protein stability index [3] | protein stability index [4] |
| --- | --- | --- | --- | --- |
| RMYCSDLLNPNLKDTVICAMKITQ [SPACA3] | 2.15 ± 0.42 | 2.05 ± 0.17 |  |  |
| RNTPIEALCENFPEEMATYLRYVR [CSNK1G1] | 2.84 ± 0.26 | 2.9 ± 0.56 |  |  |
| RNTSWGVVQEPPGRASRFLQSISW [TLE6] | 2.47 ± 0.28 | 2.46 ± 0.3 |  |  |
| RNVTGTPLTGDKDDEEVDTHFASQ [ADAMTSL2] | 5.5 ± 0.22 | 5.32 ± 0.27 |  |  |
| RPEELLQMELLLVNKLKWNLAAMT [CCND1] | 2.68 ± 0.71 | 2.52 ± 0.66 |  |  |
| RPLARPIKPNEILPPEKGREVAKE [RHOBTB2] | 4.91 ± 0.16 | 4.68 ± 0.66 |  |  |
| RPMSEPGAGAGSSLLDVAEPGGPG [SMAD6] | 5.11 ± 0.3 | 5.39 ± 0.16 |  |  |
| RQDPRPHGPQLPTGIEGNWGRLLE [ZBED2] | 3.68 ± 0.2 | 3.54 ± 0.32 |  |  |
| RQEYQKALQEYSSISEKLSSTNFA [C8orf76] | 3.48 ± 0.26 | 3.69 ± 0.18 |  |  |
| RQIVSGLKYLHEQEILHRDLKLGN [PLK2] | 2.52 ± 0.21 | 2.7 ± 0.48 |  |  |
| RQKREAAARKKYNLLQDSSTSDSD [C18orf25] | 5.17 ± 0.25 | 5.18 ± 0.15 |  |  |
| RQMHLARFLRMLLRLADEFGVAVV [RAD51] | 2.55 ± 0.41 | 2.68 ± 0.28 |  |  |
| RQRCMPEEDLQSQSETQGLEGAQA [MAGEA10] | 5.44 ± 0.28 | 5.44 ± 0.082 |  |  |
| RREAVQRGRMPPTQPTHGQFALTN [NR2F2] | 3.9 ± 0.29 | 3.99 ± 0.25 |  |  |
| RRERNNIAVRKSRDKAKMRNLETQ [CEBPB] | 4.28 ± 0.18 | 4.5 ± 0.19 |  |  |
| RRMAESLRIPEGPIDQGPAIGRVR [FUT8] | 4.22 ± 0.17 | 4.43 ± 0.18 |  |  |
| RRTAENKLDTKYPYVCHAELNAIM [DCTD] | 2.29 ± 0.15 | 2.37 ± 0.49 |  |  |
| RRVWSPPRVHKVEMGFGGGGGAN [ZBTB22] |  |  | 4.13 ± 0.3 | 3.92 ± 0.14 |
| RSAMSGASQPRGPALLFPATRGVP [TRIB1] | 3.554 ± 0.019 | 4.14 ± 0.29 |  |  |
| RSCGGGVTSQERHCLQQRRKSVPG [ADAMTSL2] | 4.58 ± 0.25 |  |  |  |

From the supplement of paper PMC10567573
